The values below come from paper PMC7719688.

The target of this data set is T1, ArcA-His6 (acetyl phosphate present or absent) (Escherichia coli K1 Rs218 (O18:H7:K1)) (UniProt P0A9Q1).
T1 sequence: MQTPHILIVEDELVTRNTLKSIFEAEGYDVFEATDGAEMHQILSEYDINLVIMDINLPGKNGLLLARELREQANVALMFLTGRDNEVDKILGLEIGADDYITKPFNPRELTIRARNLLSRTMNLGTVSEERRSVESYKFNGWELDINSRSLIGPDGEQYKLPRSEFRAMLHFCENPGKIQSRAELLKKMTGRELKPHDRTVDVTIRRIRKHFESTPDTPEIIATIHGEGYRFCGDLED
In words: EMSA. The note with it: 10 mM Tris-HCl pH 7.4, 50 mM KCl, 0.1 mM EDTA, 0.2 mM DTT.

As for “ACGAACTGTTCACCGCCACTCGCGGTCAGGGCGCACAGCTGAACGGCTACCGTCTGCGCGGCAGCACCGCTCGCGATCTCGACGGTACTATTCTGGCGACCGGCTTCCCGTTCAAAGCAAAACAGTACGCCACTACCTACATCAACATCGTCGGCA (double strand) [suhB gene fragment]”, the binding result (+/- 30 mM acetyl phosphate, 37 C 30 min, 6% PAGE in 0.5x TBE, GelRed stain) is on record as “no binding”.
Turning to “ATTTGGTTGTAACACGGCGTATGGCACATGCGTCGTTAGCGGTCTGGGGACGTTAAAGGGGACAATCCACTCCTTGCTCGAGCAGACAAACCAGGTAGCCGGAATGTGCAAGTCAATGAGGATGCTGATAAGACGCCTAACCAGCGTGGCGATTCGGTTTGACGCCTGGGAAGAGACCAGGGTGCAACGATGAGGGCATTTATGGAACCGCGACAAAGTGTGGTGCCGTAACTGGCTAAGTGCTCTCAGC (double strand) [sRNA-17 promoter (PsRNA-17)]”, the binding result ([…]) was “binds”.
